Experimental data from PMC9371926 (Nucleic Acids Research, 2022).

T1: Methanocaldococcus jannaschii (Mja) RPP21 (Methanocaldococcus jannaschii, UniProt Q58372 1-128)
T1 sequence: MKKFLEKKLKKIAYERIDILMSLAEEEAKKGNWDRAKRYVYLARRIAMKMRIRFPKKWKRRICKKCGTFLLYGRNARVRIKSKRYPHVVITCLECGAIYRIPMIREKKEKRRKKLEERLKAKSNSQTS

T2: Methanocaldococcus jannaschii (Mja) RPP30 (Methanocaldococcus jannaschii, UniProt Q58539 1-232)
T2 sequence: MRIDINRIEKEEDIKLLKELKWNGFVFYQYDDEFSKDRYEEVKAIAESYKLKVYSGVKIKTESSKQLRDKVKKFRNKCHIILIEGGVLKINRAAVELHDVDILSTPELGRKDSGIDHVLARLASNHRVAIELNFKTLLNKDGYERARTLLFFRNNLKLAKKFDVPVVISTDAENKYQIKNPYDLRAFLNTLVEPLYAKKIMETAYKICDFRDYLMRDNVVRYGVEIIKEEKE


Columns and labels:
Experiment in all cases: native MS
[1] = molecular target: T1, Methanocaldococcus jannaschii (Mja) …
native MS = molecular target: the molecule itself
[2] = molecular target: T2, Methanocaldococcus jannaschii (Mja) …

Binder | binding result (native MS) | other results
Methanocaldococcus jannaschii (Mja) RPP29 (natural protein) MITPHNILRHELIGLKVEIVEAKNKAMIGIKGKVVDETRNTLVIEKEDGREVVIPKDIAVFLFQLKGCKVKVDGRLLIGRPEERLKKKIKILYPY |  | binding result [1]: binds
Mja RPP21·RPP29 binary complex (complex, Methanocaldococcus jannaschii) chain 1: MKKFLEKKLKKIAYERIDILMSLAEEEAKKGNWDRAKRYVYLARRIAMKMRIRFPKKWKRRICKKCGTFLLYGRNARVRIKSKRYPHVVITCLECGAIYRIPMIREKKEKRRKKLEERLKAKSNSQTS chain 2: MITPHNILRHELIGLKVEIVEAKNKAMIGIKGKVVDETRNTLVIEKEDGREVVIPKDIAVFLFQLKGCKVKVDGRLLIGRPEERLKKKIKILYPY | binds | 
Methanocaldococcus jannaschii (Mja) POP5 (natural protein) MIEMLKTLPPTLREKKRYIAFKILYDEELKEGEVVNLIRKAVLEYYGSWGTSKANPWLVYYDFPYGILRCQRDNVDYVKASLILIREFKEKPVNIICLGVSGTIRKAKIKFLGIKKPKRWFVIRRERLKAKKQK |  | binding result [2]: binds
Mja POP5·RPP30 binary complex (complex, Methanocaldococcus jannaschii) chain 1: MIEMLKTLPPTLREKKRYIAFKILYDEELKEGEVVNLIRKAVLEYYGSWGTSKANPWLVYYDFPYGILRCQRDNVDYVKASLILIREFKEKPVNIICLGVSGTIRKAKIKFLGIKKPKRWFVIRRERLKAKKQK chain 2: MRIDINRIEKEEDIKLLKELKWNGFVFYQYDDEFSKDRYEEVKAIAESYKLKVYSGVKIKTESSKQLRDKVKKFRNKCHIILIEGGVLKINRAAVELHDVDILSTPELGRKDSGIDHVLARLASNHRVAIELNFKTLLNKDGYERARTLLFFRNNLKLAKKFDVPVVISTDAENKYQIKNPYDLRAFLNTLVEPLYAKKIMETAYKICDFRDYLMRDNVVRYGVEIIKEEKE | binds | 
